Source: IntAct's records for PubMed 19513235

B1: Mitogen-activated protein kinase kinase 2 (Arabidopsis thaliana (Mouse-ear cress)), Q9S7U9 (parent)
chain: MKKGGFSNNLKLAIPVAGEQSITKFLTQSGTFKDGDLRVNKDGVRIISQLEPEVLSPIKPADDQLSLSDLDMVKVIGKGSSGVVQLVQHKWTGQFFALKVIQLNIDEAIRKAIAQELKINQSSQCPNLVTSYQSFYDNGAISLILEYMDGGSLADFLKSVKAIPDSYLSAIFRQVLQGLIYLHHDRHIIHRDLKPSNLLINHRGEVKITDFGVSTVMTNTAGLANTFVGTYNYMSPERIVGNKYGNKSDIWSLGLVVLECATGKFPYAPPNQEETWTSVFELMEAIVDQPPPALPSGNFSPELSSFISTCLQKDPNSRSSAKELMEHPFLNKYDYSGINLASYFTDAGSPLATLGNLSGTFSV
B2: Mitogen-activated protein kinase kinase 2 (Arabidopsis thaliana (Mouse-ear cress)), Q9S7U9 (parent)
chain: B1 chain
partner: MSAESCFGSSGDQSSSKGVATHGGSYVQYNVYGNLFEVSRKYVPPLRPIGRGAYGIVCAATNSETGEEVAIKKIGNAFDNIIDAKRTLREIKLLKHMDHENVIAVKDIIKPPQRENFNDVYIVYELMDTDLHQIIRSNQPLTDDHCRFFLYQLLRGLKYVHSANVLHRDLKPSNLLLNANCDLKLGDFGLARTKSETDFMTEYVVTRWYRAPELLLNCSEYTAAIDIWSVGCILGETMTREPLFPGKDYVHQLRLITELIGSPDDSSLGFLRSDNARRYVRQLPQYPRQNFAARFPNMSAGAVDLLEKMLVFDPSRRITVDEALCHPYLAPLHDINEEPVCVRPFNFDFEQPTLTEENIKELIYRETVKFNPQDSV

Variants of: B1
Conditions: with mpk6_arath MPK6, Q39026
Sequence of mpk6_arath MPK6, Q39026 (Q39026 whole entry): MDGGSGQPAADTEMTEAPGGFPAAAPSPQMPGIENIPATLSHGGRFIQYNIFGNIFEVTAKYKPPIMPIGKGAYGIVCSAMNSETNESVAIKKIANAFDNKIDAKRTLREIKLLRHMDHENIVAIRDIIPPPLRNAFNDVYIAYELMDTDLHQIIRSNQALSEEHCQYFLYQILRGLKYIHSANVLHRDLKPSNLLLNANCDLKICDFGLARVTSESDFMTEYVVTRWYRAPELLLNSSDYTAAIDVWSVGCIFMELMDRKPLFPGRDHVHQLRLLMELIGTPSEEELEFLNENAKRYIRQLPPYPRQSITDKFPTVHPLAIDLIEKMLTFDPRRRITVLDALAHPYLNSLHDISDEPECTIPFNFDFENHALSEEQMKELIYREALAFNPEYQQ

Variant | effect of a mutation on the interaction
MKKGGFSNNLKLAIPVAGEQSITKFLTQSGTFKDGDLRVNKDGVRIISQLEPEVLSPIKPADDQLSLSDLDMVKVIGKGSSGVVQLVQHKWTGQFFALKVIQLNIDEAIRKAIAQELKINQSSQCPNLVTSYQSFYDNGAISLILEYMDGGSLADFLKSVKAIPDSYLSAIFRQVLQGLIYLHHDRHIIHRDLKPSNLLINHRGEVKITDFGVSTVMTNTAGLANEFVGTYNYMSPERIVGNKYGNKSDIWSLGLVVLECATGKFPYAPPNQEETWTSVFELMEAIVDQPPPALPSGNFSPELSSFISTCLQKDPNSRSSAKELMEHPFLNKYDYSGINLASYFTDAGSPLATLGNLSGTFSV [T226E] | increasing interaction
MKKGGFSNNLKLAIPVAGEQSITKFLTQSGTFKDGDLRVNKDGVRIISQLEPEVLSPIKPADDQLSLSDLDMVKVIGKGSSGVVQLVQHKWTGQFFALKVIQLNIDEAIRKAIAQELKINQSSQCPNLVTSYQSFYDNGAISLILEYMDGGSLADFLKSVKAIPDSYLSAIFRQVLQGLIYLHHDRHIIHRDLKPSNLLINHRGEVKITDFGVSTVMTNDAGLANTFVGTYNYMSPERIVGNKYGNKSDIWSLGLVVLECATGKFPYAPPNQEETWTSVFELMEAIVDQPPPALPSGNFSPELSSFISTCLQKDPNSRSSAKELMEHPFLNKYDYSGINLASYFTDAGSPLATLGNLSGTFSV [T220D] | increasing interaction

Variants of: B1
Conditions: with mpk10_arath MPK10, Q9M1Z5
Sequence of mpk10_arath MPK10, Q9M1Z5 (Q9M1Z5 whole entry): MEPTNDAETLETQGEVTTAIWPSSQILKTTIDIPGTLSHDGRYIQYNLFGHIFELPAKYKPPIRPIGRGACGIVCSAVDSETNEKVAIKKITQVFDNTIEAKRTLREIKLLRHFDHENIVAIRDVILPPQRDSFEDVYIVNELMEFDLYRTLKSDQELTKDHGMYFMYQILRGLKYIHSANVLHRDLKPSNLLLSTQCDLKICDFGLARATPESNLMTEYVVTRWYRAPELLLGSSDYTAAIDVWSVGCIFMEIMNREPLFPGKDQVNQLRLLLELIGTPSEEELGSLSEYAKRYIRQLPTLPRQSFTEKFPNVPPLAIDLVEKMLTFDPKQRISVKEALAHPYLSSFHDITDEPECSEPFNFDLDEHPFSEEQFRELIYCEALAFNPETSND

Variant | effect of a mutation on the interaction
MKKGGFSNNLKLAIPVAGEQSITKFLTQSGTFKDGDLRVNKDGVRIISQLEPEVLSPIKPADDQLSLSDLDMVKVIGKGSSGVVQLVQHKWTGQFFALKVIQLNIDEAIRKAIAQELKINQSSQCPNLVTSYQSFYDNGAISLILEYMDGGSLADFLKSVKAIPDSYLSAIFRQVLQGLIYLHHDRHIIHRDLKPSNLLINHRGEVKITDFGVSTVMTNTAGLANEFVGTYNYMSPERIVGNKYGNKSDIWSLGLVVLECATGKFPYAPPNQEETWTSVFELMEAIVDQPPPALPSGNFSPELSSFISTCLQKDPNSRSSAKELMEHPFLNKYDYSGINLASYFTDAGSPLATLGNLSGTFSV [T226E] | increasing interaction
MKKGGFSNNLKLAIPVAGEQSITKFLTQSGTFKDGDLRVNKDGVRIISQLEPEVLSPIKPADDQLSLSDLDMVKVIGKGSSGVVQLVQHKWTGQFFALKVIQLNIDEAIRKAIAQELKINQSSQCPNLVTSYQSFYDNGAISLILEYMDGGSLADFLKSVKAIPDSYLSAIFRQVLQGLIYLHHDRHIIHRDLKPSNLLINHRGEVKITDFGVSTVMTNDAGLANTFVGTYNYMSPERIVGNKYGNKSDIWSLGLVVLECATGKFPYAPPNQEETWTSVFELMEAIVDQPPPALPSGNFSPELSSFISTCLQKDPNSRSSAKELMEHPFLNKYDYSGINLASYFTDAGSPLATLGNLSGTFSV [T220D] | increasing interaction

Variants of: B1
Conditions: with mpk13_arath MPK13, Q9LQQ9
Sequence of mpk13_arath MPK13, Q9LQQ9 (Q9LQQ9 whole entry): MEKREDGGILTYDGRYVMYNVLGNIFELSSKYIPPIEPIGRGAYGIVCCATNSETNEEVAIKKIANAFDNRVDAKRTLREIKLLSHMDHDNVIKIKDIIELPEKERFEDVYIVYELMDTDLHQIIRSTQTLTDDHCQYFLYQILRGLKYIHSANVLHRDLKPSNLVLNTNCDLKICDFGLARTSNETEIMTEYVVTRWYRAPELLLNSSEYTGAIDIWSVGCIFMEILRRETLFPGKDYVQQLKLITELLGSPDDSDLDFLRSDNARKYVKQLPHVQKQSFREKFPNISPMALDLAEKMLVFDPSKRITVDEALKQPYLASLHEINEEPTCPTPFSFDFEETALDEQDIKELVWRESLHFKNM

Variant | effect of a mutation on the interaction
MKKGGFSNNLKLAIPVAGEQSITKFLTQSGTFKDGDLRVNKDGVRIISQLEPEVLSPIKPADDQLSLSDLDMVKVIGKGSSGVVQLVQHKWTGQFFALKVIQLNIDEAIRKAIAQELKINQSSQCPNLVTSYQSFYDNGAISLILEYMDGGSLADFLKSVKAIPDSYLSAIFRQVLQGLIYLHHDRHIIHRDLKPSNLLINHRGEVKITDFGVSTVMTNTAGLANEFVGTYNYMSPERIVGNKYGNKSDIWSLGLVVLECATGKFPYAPPNQEETWTSVFELMEAIVDQPPPALPSGNFSPELSSFISTCLQKDPNSRSSAKELMEHPFLNKYDYSGINLASYFTDAGSPLATLGNLSGTFSV [T226E] | increasing interaction
MKKGGFSNNLKLAIPVAGEQSITKFLTQSGTFKDGDLRVNKDGVRIISQLEPEVLSPIKPADDQLSLSDLDMVKVIGKGSSGVVQLVQHKWTGQFFALKVIQLNIDEAIRKAIAQELKINQSSQCPNLVTSYQSFYDNGAISLILEYMDGGSLADFLKSVKAIPDSYLSAIFRQVLQGLIYLHHDRHIIHRDLKPSNLLINHRGEVKITDFGVSTVMTNDAGLANTFVGTYNYMSPERIVGNKYGNKSDIWSLGLVVLECATGKFPYAPPNQEETWTSVFELMEAIVDQPPPALPSGNFSPELSSFISTCLQKDPNSRSSAKELMEHPFLNKYDYSGINLASYFTDAGSPLATLGNLSGTFSV [T220D] | increasing interaction

Variants of: B2
Conditions: with mpk4_arath MPK4, Q39024

Variant | effect of a mutation on the interaction
MKKGGFSNNLKLAIPVAGEQSITKFLTQSGTFKDGDLRVNKDGVRIISQLEPEVLSPIKPADDQLSLSDLDMVKVIGKGSSGVVQLVQHKWTGQFFALKVIQLNIDEAIRKAIAQELKINQSSQCPNLVTSYQSFYDNGAISLILEYMDGGSLADFLKSVKAIPDSYLSAIFRQVLQGLIYLHHDRHIIHRDLKPSNLLINHRGEVKITDFGVSTVMTNTAGLANEFVGTYNYMSPERIVGNKYGNKSDIWSLGLVVLECATGKFPYAPPNQEETWTSVFELMEAIVDQPPPALPSGNFSPELSSFISTCLQKDPNSRSSAKELMEHPFLNKYDYSGINLASYFTDAGSPLATLGNLSGTFSV [T226E] | increasing interaction
MKKGGFSNNLKLAIPVAGEQSITKFLTQSGTFKDGDLRVNKDGVRIISQLEPEVLSPIKPADDQLSLSDLDMVKVIGKGSSGVVQLVQHKWTGQFFALKVIQLNIDEAIRKAIAQELKINQSSQCPNLVTSYQSFYDNGAISLILEYMDGGSLADFLKSVKAIPDSYLSAIFRQVLQGLIYLHHDRHIIHRDLKPSNLLINHRGEVKITDFGVSTVMTNDAGLANTFVGTYNYMSPERIVGNKYGNKSDIWSLGLVVLECATGKFPYAPPNQEETWTSVFELMEAIVDQPPPALPSGNFSPELSSFISTCLQKDPNSRSSAKELMEHPFLNKYDYSGINLASYFTDAGSPLATLGNLSGTFSV [T220D] | increasing interaction
